Target: the molecule itself
Test: cross-linking; 10 ug protein in 10 ul, 1 mM DSP, 30 min at 25°C, 20 mM HEPES-KOH pH 7.6, 50 mM KCl, without or with pUC18 DNA (protein/DNA mass ratios 1:1 and 1:5); non-reducing 15% SDS-PAGE, Coomassie

B1: Sis7d (natural protein)
chain: MTTVKFKYKGEEKQVDTSKIKKVWRVGKMISFTYDEGGGKTGRGAVSEKDAPKELLQMLEKQKK
- stoichiometry N: 2

Source: paper PMC7373190, “Archaeal Chromatin Proteins Cren7 and Sul7d Compact DNA by Bending and Bridging” (mBio, 2020)
